Consider 1 sequence from publication PMC5389570.

The target in this data set is RPA heterotrimer (RPA70/RPA32/RPA14) (Homo sapiens) (UniProt P27694+P15927+P35244). The experiment in a line: EMSA.
Chain of RPA heterotrimer (RPA70/RPA32/RPA14) (Homo sapiens) (P27694 whole entry, chain 1 of 3): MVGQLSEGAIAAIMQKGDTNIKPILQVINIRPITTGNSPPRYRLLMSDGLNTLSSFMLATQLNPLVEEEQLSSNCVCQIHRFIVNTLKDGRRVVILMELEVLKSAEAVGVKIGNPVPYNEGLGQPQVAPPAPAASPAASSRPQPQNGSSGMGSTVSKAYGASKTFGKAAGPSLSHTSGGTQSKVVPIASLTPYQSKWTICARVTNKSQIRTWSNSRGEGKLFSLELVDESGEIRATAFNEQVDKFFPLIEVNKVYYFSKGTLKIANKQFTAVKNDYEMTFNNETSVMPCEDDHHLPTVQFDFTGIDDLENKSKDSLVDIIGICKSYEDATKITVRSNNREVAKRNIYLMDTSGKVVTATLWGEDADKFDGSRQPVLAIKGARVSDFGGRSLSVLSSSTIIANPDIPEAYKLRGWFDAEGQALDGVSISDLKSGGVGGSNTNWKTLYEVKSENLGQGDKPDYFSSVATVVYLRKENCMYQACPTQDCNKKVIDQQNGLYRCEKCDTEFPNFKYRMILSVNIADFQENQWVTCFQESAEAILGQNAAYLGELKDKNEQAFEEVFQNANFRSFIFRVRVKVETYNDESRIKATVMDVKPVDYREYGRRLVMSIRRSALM
Chain of RPA heterotrimer (RPA70/RPA32/RPA14) (Homo sapiens) (P15927 whole entry, chain 2 of 3): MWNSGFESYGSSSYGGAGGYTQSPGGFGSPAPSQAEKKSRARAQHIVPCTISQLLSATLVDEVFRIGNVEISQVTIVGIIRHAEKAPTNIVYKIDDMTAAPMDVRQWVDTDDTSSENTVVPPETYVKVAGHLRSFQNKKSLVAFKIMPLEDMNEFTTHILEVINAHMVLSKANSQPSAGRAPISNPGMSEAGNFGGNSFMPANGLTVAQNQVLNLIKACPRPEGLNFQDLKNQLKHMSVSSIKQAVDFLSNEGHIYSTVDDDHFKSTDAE
Chain of RPA heterotrimer (RPA70/RPA32/RPA14) (Homo sapiens) (P35244 whole entry, chain 3 of 3): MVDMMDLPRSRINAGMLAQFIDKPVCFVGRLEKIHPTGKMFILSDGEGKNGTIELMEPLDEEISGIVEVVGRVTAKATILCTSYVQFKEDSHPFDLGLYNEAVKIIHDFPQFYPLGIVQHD

For the sequence “TTTTTTTTTTTTTTTTTTTTTTTTTTTTTTTTTTTTTTTTGGTCGGAGTTAGAGTAGGGTCGGAGTTAGAGTAGCCAGTA [S8 (80-mer)]”, the binding signal (fold vs RPA alone) is 2.
